Data from the nanobody polyreactivity screen of Harvey et al. (2022).

Test: yeast display, Sf9 membrane polyspecificity reagent, FACS + sequencing; frameworks hold sequencing errors
Procedure, shortened: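 Using colony PCR, genes from sorted yeast display clones were amplified, then sequenced on MiSeq at 2 × 250 and filtered by CDR length. The clones had been stained with 10% biotinylated, detergent-solubilized Sf9 membrane reagent for 1 hour at 4 °C and sorted by FACS into low and high (top ~1%) gates on anti-HA and streptavidin fluorescence. Polyreactivity labels come from the gate of origin.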

Sequence | polyreactivity (PSR sort gate)
QVQLVESGGGLVQAGGSLRLSCAASGIIFRWYAMGWYRQAPGKERELVAGITSTTGTTYYADSVKGRFTISRDNAKNTVYLQMNSLKPEDSAVYYCAADYYWYTTAGVVDSFEYWGQGTQVTVSS | low polyreactivity
QVQLVESGGGLVQAGGSLRLSCAASGSIFTKNSMGWYRQAPGKERELVAAISSGGSTYYADSVKGRFTISRDNAKNTVYLQMNSLKPEDTAVYYCARGASFFQKFYYWGQGTQVTVSS | high polyreactivity
QVQLVESGGGLVQAGGSLRLSCAASGLIFYFNAMGWYRQAPGKERELVASITRTGSTNYADSVKGRFTISRDNAKNTVYLQMNSLKAEDTAVYYCAAYGPVYPHEYDYWGHGTQVTVSS | low polyreactivity
QVQLVESGGGLVQAGGSLRLSCAASGSTFQPNAMGWYRQAPGKERELVAAISKSDGRTYYADSVKGRFTISRDNAKNTVYLQMNSLQPEDTAVYNCAADAYWEPKVGFSLFDYWGQGTQVTVSS | low polyreactivity
QVHLVESGGCLVQAGGSLRLSCAASGITFGYYAMGWYRQAPGKERELVAAITTRGGSTSDADSVKGRFTISRDNAKNTVYFQMNSLKPEDNAVYYCAARWRQRKSVRYGQHGYDYWGQGTQVTVSS | high polyreactivity
QVQLVESGGGLVQAGGSLRLSCAASGSTFDPNAMGWYRQAPAKERELVAAISYTGGRTYYADSVKGRFTISRDNAKNTVYLQMNSLKPEDTAVYYCAVLVVGSTTQDEPYFSGVEHDYWGQGTQVTVSS | low polyreactivity
QVQLVESGGGLVQAGGSLRLSCAASGRTFSPNAMGWYRQAPGKERELVAAITRSDGRTYYADSVKGRFTISRDNAKNTVYLQMNSLKPEDTAVYYCAVDGYYPPAWYEYDYWGQGTQVTVSS | high polyreactivity
QVQLVESGGGLVQAGGSLRLSCAASGFTFRYNAMGWYRQAPGKERELVASITYSGGTTTYADSVKGRFTISRDNAKNTVYLQMNSLKPEDTAVYYCAARGYFSGYRVYYWGQGTQVTVSS | high polyreactivity
QGQLVESGGGLVQAAGSLSLSCAASGRIYPYAMGWYRQAPGKERELVAAIPVNDGSTYYADSVTGRFTIARDNAMISVDLQMNSRKPEVSAVYYWKADYPIGWRNQYVQILYDYWGQGTQVTVSS | low polyreactivity
QVQLVESGGGLVQAGGSLRLSCASSGSNVYIYAMGWYRQAPGKERELVAAISSAGSTYYADSVKGRFTISRDNAKNTVYLQMNSLKPEDTAVYYCAARAQYPGWRYNYWGQGTQVTVSS | high polyreactivity
QVQLVESGGGLVQAGGSLRLSCAASGFIFVNNVMGWYRQAPGKERELVAAISRRGGSTYYADSVKGRFTISRDNAKNTVYLQMNSLKPEDTAVYYCARRGPDFSWKYDYWGQGTQVTVSS | high polyreactivity
KVQLVESGGGLFQAGGSLGLSCAPSGNTFYHYAMGWYRQSPGKERELVAGIRYNGGSTYYADSVKGRFTISRDNAKNTVYLHMKSLKPEDTAVYYCATIGYTGYAYRYGYWGQGTQVTVSS | high polyreactivity
QVQLVESGGGLVQAGGSLRLSCAASGSIFRYNAMGWYRQAPGKERELVASISWSGGSTYYADSVKGRFTISRDNAKNTVYLQMNSLKPEDNAFYYCNVYGKYFRSRYDSWGQGTQVNVSS | high polyreactivity
QVQLVESGGGLVQAGGSLRLSCAASGRTFCIYAMGWYIQAPGKEREFVAAISSSGGGTYYADSVKGRFTISRDNAKNTVYLQMNSLKPEDTAVYYCAADDGYSSNEYDYWGQGTQVTVSS | low polyreactivity
QVQLVESGGGLVQAGGSLRLSCAASGSIFYRNAMGWSRQPPGKERELVAGITTRGGSTYYADSVKGRFTISRDNAKNTVYLQMNSLKPEDTAVYYCAAVPYSRYSSSRGYWGQGTQVTVSS | high polyreactivity
QVQLVESGGGLVQAGGSLRLSCAASGRTLVYNAMGWYRQAPGKERELVAAITTDGGDTYYADSVKGRFTISRDNAKNTVYLQMNSLKPEDTAVYYCAADYVALYYWYDYWGQGTQVTVSS | low polyreactivity
QVQLVESGGGLVQAGGSLRLSCAASGITFRHYAMGWYRQAPGKERELVAAITSRGGSTYYADSVKGRFTISRDNAKNTVYLQMNSLKPEDTAVYYCAARRRLRAPDDYWGQGTQVTVSS | high polyreactivity
